{
  "source": "patent US20150118700",
  "proteins": {"B1": {"name": "fructosyl amino acid oxidase derived from Aspergillus nidulans with serine 59 substituted with glycine (AnFX) (protein)", "chain": "MTPRANTKIIVVGGGGTMGSSTALHLLRAGYTPSNITVLDTCPIPSAQSAGYDLNKIMGIRLRNKPDLQLSLEALDMWKNDPLFKPFFHNVGMIDVSSTEEGIEGLRKKYQSLLDAGIGLEKTNFMLESEDEILAKAPHFTQEQIKGWKGLFCGDGGWLAAAKAINAIGQFLKEQGVKFGFGGAGTFKKPLFADAHEKTCIGVETVDGTKYYADKVVLAAGAWSSTLVDLEEQCVSKAWVFAHIQLTPAEAAAYKNTPVIYDGDYGFFFEPNENGIIKVCDEFPGFTHFKMHQPYGSPAPKPISVPRSHAKHPTDTYPHASEVTIKKAINRFLPRFNDKELFNRAMCWCTDTADANLLVCEHPRWKGFYLATGDSGHSFKLLPNIGKHVVELLEERLESVFKDAWRWRPGSGDALKSRRAAPAKDLADMPGWRNEAKM"}, "B2": {"name": "AnFX-61D/105K/109L (protein)", "chain": "B1 chain with R61D, G105K, K109L"}, "B3": {"name": "AnFX-61D/62H/101K/105K/109L/112K/355S (protein)", "chain": "B1 chain with R61D, L62H, E101K, G105K, K109L, S112K, A355S"}, "B4": {"name": "PnFX-62D/106K/110L/113K (protein)", "chain": "MAPSRANTSVIVVGGGGTIGSSTALHLVRSGYTPSNVTVLDAYPIPSSQSAGNDLNKIMGVDLRNPVDLQLALEARQMWNEDELFKKFFHNTGRLDCAHGEKDIAKLKSLYQKLVDAGLDATNEWLDSEDEILKRMPLLSRDQIKGWKAIFSKDGGWLAAAKAINAVGEYLRDQGVRFGFYGAGSFKAPLLAEGVCIGVETVDGTRYYADKVVLAAGAWSPTLVELHEQCVSKAWVYGHIQLTPEEAARYKNSPVVYNGDVGFFFEPNEHGVIKVCDEFPGFTRFKMHQPFGAKAPKRISVPRSHAKHPTDTIPDASDVSIRRAIATFMPQFKNKKMFNQAMCWCTDTADAALLICEHPEWKNFVLATGDSGHSFKLLPNIGKHVVELLEGTLADDLAHAWRWRPGSGDALKSRRSAPAKDLADMPGWNHDKPRANL"}, "B5": {"name": "PnFX-62D/63H/106K/110L/113K/351S (protein)", "chain": "B4 chain with L63H, A351S"}, "B6": {"name": "ketoamine oxidase derived from Neocosmospora vasinfecta (NvFX) (protein)", "chain": "MTTPRKETTVLIIGGGGTIGSSTALHLLRAGYTPSNITVLDTYPIPSAQSAGNDLNKIMGIRLRNKVDLQLSLEARDMWRNDALFRPFFHNTGRLDCESSAEGVEGLRREYQKLVEAGVGLEETHEWLDSEEAILEKAPLLQREEIEGWKAIWSEEGGWLAAAKAINAIGEELQRQGVRFGFGGAGSFKRPLFADDGTTCIGVETVDGTQYHADKVVLAAGAWSPALVDLEEQCCSKAWVYAHMQLTPEEAAVYKGCPVVYHGDVGFFFEPNENGVIKVCDEFPGFTRFKQHQPYGAPAPKPVSVPRSHAKHPTDTYPDASEESIKRAVSTFLPRFKDKPLFNRALCWCTDTADSALLICEHPRWKNFILATGDSGHSFKLLPIIGKHVVELVEGRLADDLAEAWRWRPGQGDARKSIRAAPAKDLADMPGWKHDQDSESR"}, "B7": {"name": "NvFX-62D/106K/110L (protein)", "chain": "B6 chain with R62D, G106K, E110L"}, "B8": {"name": "amadoriase exhibiting 95% sequence identity with ketoamine oxidase derived from Curvularia clavata (Cc95FX) (protein)", "chain": "MAPSRANTSVIVVGGGGTIGSSTALHLVRSGYTPSNITVLDAYPIPSSQSAGNDLNKIMGIRLRNKVDLQLSLEARQMWREDDLFKEYFHNTGRLDCAHGEEGLADLRQAYQALLDANAGLEETTEWLDSEDEILKKMPLLSRDQIKGWKAVYSQDGGWLAAAKAINAIGEYLRAQGVKFGFGGAGSFKQPLLAEGVCIGVETVDGTRYYADKVVLAAGAWSPTLVELHEQCVSKAWVYGHIQLTPEEAAEYKNSPVVYNGDVGFFFEPNEHGVIKVCDEFPGFTRFKMHQPFGAKAPKRISVPRSHAKHPTDTIPDASEKSIRKAIATFLPKFTEKELFNRHLCWCTDTADAALLICEHPEWKNFVLATGDSGHSFKLLPNIGKHVVELLEGTLADDLAHAWRWRPGSGDALKSRRSAPAKDLADMPGWKHDDVVKSKL"}, "B9": {"name": "fructosyl peptide oxidase derived from Eupenicillium terrenum (EFP-T5) (protein)", "chain": "MAHSRASTKVVVVGGGGTIGSSTALHLIRSGYTPSNITVLDVYKTPSLQSAGHDLNKIMGIRLRNGPDLQLSLESLDMWQNDELFKPFFHQVGMIDCSSSKEGIENLRRKYQTLLDAGIGLEKTNVWLESEDEILAKAPNFTREQVKGWKGLFCTDGGWLAAAKAINAIGIFLQDKGVKFGFGDAGTFQQPLFAADGKTCIGLETTDGTKYFADKVVLAAGAWSPTLVDLEDQCVSKAWVFAHIQLTPKEADAYKNVPVVYDGEYGFFFEPDEYGVIKVCDEFPGFSRFKLHQPYGAASPKMISVPRSHAKHPTDTYPDASEVTIRKAIARFLPEFKDKELFNRTMCWCTDTADANLLICEHPKWKNFILATGDSGHSFKLLPNIGKYVVELLEGSLSQEMAGAWRWRPGGDALRSRRGAPAKDLAEMPGWKHDAHL"}, "B10": {"name": "EFP-T5-R62D (protein)", "chain": "B9 chain with R62D"}, "B11": {"name": "EFP-T5-62D/63H/106K/110L/113K/355S (protein)", "chain": "B9 chain with R62D, L63H, N106K, K110L, T113K, A355S"}, "B12": {"name": "CFP-T7-H11 (protein)", "chain": "MTSNRADTRVIVVGGGGTIGSSTALHLVRSGYAPANITVLDTFEIPSAQSAGHDLNKIMGIDLRNKVDLQMSLEARQMWKEDELFQPFFHNTGRMDCEHTPEGIEKLKKLYQALHDAGAGLEKTHAWLDNEDEILSKMPLLQRDQIQGWKAIWSQDGGWLAAAKAINAIGQFLKERGVKFGFGGAGSFKQPLFDDEGTTCIGVETADGTKYYADKVVLAAGAWSPTLVDLEDQCCSKAWVYAHIQLTPEEAAEYKGVPVVYNGEFGFFFEPDEFGVIKVCDEFPGFSRFKEHQPYGAPSPKRISVPRSHAKHPTDTYPDASEVSIKKAIATFLPRFQDKELFNRALCWCTDTADAALLMCEHPKWKNFILATGDSGHSFKILPNVGKYVVELIEGRLPEEMAYQWRWRPGGDALKSRRAAPPKDLADMPGWKHDPKL"}, "B13": {"name": "CFP-T7-H3 (protein)", "chain": "B12 chain with D62A, K106D, L110F"}, "B14": {"name": "CFP-T7-H27 (protein)", "chain": "B12 chain with L63K, A113K"}, "B15": {"name": "CFP-T7-H12 (protein)", "chain": "B12 chain with K106R"}, "B16": {"name": "CFP-T7-H29 (protein)", "chain": "B12 chain with L63H, A113K, A419K"}, "B17": {"name": "CFP-T7-H24 (protein)", "chain": "B12 chain with L63A, A113K"}, "B18": {"name": "CFP-T7-H25 (protein)", "chain": "B12 chain with L63D, A113K"}, "B19": {"name": "CFP-T7-H14 (protein)", "chain": "B12 chain with K106D, A113R"}, "B20": {"name": "CFP-T7-H1 (protein)", "chain": "B12 chain with D62A, K106D, L110Q"}, "B21": {"name": "CFP-T7-H4 (protein)", "chain": "B12 chain with D62A, K106D, L110Y"}, "B22": {"name": "CFP-T7-H13 (protein)", "chain": "B12 chain with K106D, A113K"}, "B23": {"name": "CFP-T7-H26 (protein)", "chain": "B12 chain with L63H, A113K"}, "B24": {"name": "CFP-T7-H28 (protein)", "chain": "B12 chain with L63H, E102K, A113K"}},
  "note": "Substitutions are numbered along the chain they refer to. In names and notes the source's numbering stands.",
  "data": [
    {"biological_target": "T1, α-fructosyl hexapeptide (α-fructosyl-valyl-histidyl-leucyl-threonyl-propyl-glutamic acid)", "T1 chain": "VHLTPE", "units": {"Specific activity (U/mg), 1 mM αF6P": "U/mg"}, "values": [
      {"protein": "B1", "Specific activity (U/mg), 1 mM αF6P": 0},
      {"protein": "B2", "Specific activity (U/mg), 1 mM αF6P": 0.106},
      {"protein": "B3", "Specific activity (U/mg), 1 mM αF6P": 0.283},
      {"protein": "B4", "Specific activity (U/mg), 1 mM αF6P": 0.125, "specific activity on αF6P, fold over PnFX": "specific activity was elevated by 13.7 fold"},
      {"protein": "B5", "Specific activity (U/mg), 1 mM αF6P": 0.667},
      {"protein": "B6", "Specific activity (U/mg), 1 mM αF6P": 0},
      {"protein": "B7", "Specific activity (U/mg), 1 mM αF6P": 0.003},
      {"protein": "B8", "αF6P oxidation activity, relative to αFVH oxidation activity designated to be 100 (relative (αFVH = 100))": 0},
      {"protein": "B9", "Specific activity (U/mg), 1 mM αF6P": 0},
      {"protein": "B10", "Specific activity (U/mg), 1 mM αF6P": 0.0043},
      {"protein": "B11", "Specific activity (U/mg), 1 mM αF6P": 1.12},
      {"protein": "B12", "αF6P oxidation activity ratio, relative to CFP-T7-H6 designated to be 100 (relative (CFP-T7-H6 = 100))": 951, "αF6P oxidation activity, relative to αFVH oxidation activity designated to be 100 (relative (αFVH = 100))": 12.5},
      {"protein": "B13", "αF6P oxidation activity, relative to αFVH oxidation activity designated to be 100 (relative (αFVH = 100))": 0.0298},
      {"protein": "B14", "αF6P oxidation activity ratio, relative to CFP-T7-H20 designated to be 100 (relative (CFP-T7-H20 = 100))": 7},
      {"protein": "B15", "αF6P oxidation activity ratio, relative to CFP-T7-H6 designated to be 100 (relative (CFP-T7-H6 = 100))": 636, "αF6P oxidation activity, relative to αFVH oxidation activity designated to be 100 (relative (αFVH = 100))": 11.6},
      {"protein": "B16", "αF6P oxidation activity ratio, relative to CFP-T7-H26 designated to be 100 (relative (CFP-T7-H26 = 100))": 102, "αF6P oxidation activity, relative to αFVH oxidation activity designated to be 100 (relative (αFVH = 100))": 111},
      {"protein": "B17", "αF6P oxidation activity ratio, relative to CFP-T7-H20 designated to be 100 (relative (CFP-T7-H20 = 100))": 123, "αF6P oxidation activity, relative to αFVH oxidation activity designated to be 100 (relative (αFVH = 100))": 86.7},
      {"protein": "B18", "αF6P oxidation activity ratio, relative to CFP-T7-H20 designated to be 100 (relative (CFP-T7-H20 = 100))": 24},
      {"protein": "B19", "αF6P oxidation activity ratio, relative to CFP-T7-H6 designated to be 100 (relative (CFP-T7-H6 = 100))": 183, "αF6P oxidation activity, relative to αFVH oxidation activity designated to be 100 (relative (αFVH = 100))": 4.22},
      {"protein": "B20", "αF6P oxidation activity, relative to αFVH oxidation activity designated to be 100 (relative (αFVH = 100))": 0.0316},
      {"protein": "B21", "αF6P oxidation activity, relative to αFVH oxidation activity designated to be 100 (relative (αFVH = 100))": 0.0341},
      {"protein": "B22", "αF6P oxidation activity ratio, relative to CFP-T7-H6 designated to be 100 (relative (CFP-T7-H6 = 100))": 207, "αF6P oxidation activity, relative to αFVH oxidation activity designated to be 100 (relative (αFVH = 100))": 4.33},
      {"protein": "B23", "αF6P oxidation activity ratio (reference, designated to be 100) (relative (CFP-T7-H26 = 100))": 100, "αF6P oxidation activity ratio, relative to CFP-T7-H20 designated to be 100 (relative (CFP-T7-H20 = 100))": 142, "αF6P oxidation activity, relative to αFVH oxidation activity designated to be 100 (relative (αFVH = 100))": 84.3},
      {"protein": "B24", "αF6P oxidation activity ratio (reference row of the table, 100) (relative (CFP-T7-H28 = 100))": 100, "αF6P oxidation activity ratio, relative to CFP-T7-H26 designated to be 100 (relative (CFP-T7-H26 = 100))": 117, "αF6P oxidation activity, relative to αFVH oxidation activity designated to be 100 (relative (αFVH = 100))": 134}
    ]}
  ]
}
